Reference: IntAct's records for PubMed 21131967

B1: N-lysine methyltransferase SETD6 (Homo sapiens), Q8TBK2 (parent)
chain: MATQAKRPRVAGPVDGGDLDPVACFLSWCRRVGLELSPKVSERAGGRRTRGGARAALTSPPAQVAVSRQGTVAGYGMVARESVQAGELLFVVPRAALLSQHTCSIGGLLERERVALQSQSGWVPLLLALLHELQAPASRWRPYFALWPELGRLEHPMFWPEEERRCLLQGTGVPEAVEKDLANIRSEYQSIVLPFMEAHPDLFSLRVRSLELYHQLVALVMAYSFQEPLEEEEDEKEPNSPVMVPAADILNHLANHNANLEYSANCLRMVATQPIPKGHEIFNTYGQMANWQLIHMYGFVEPYPDNTDDTADIQMVTVREAALQGTKTEAERHLVYERWDFLCKLEMVGEEGAFVIGREEVLTEEELTTTLKVLCMPAEEFRELKDQDGGGDDKREEGSLTITNIPKLKASWRQLLQNSVLLTLQTYATDLKTDQGLLSNKEVYAKLSWREQQALQVRYGQKMILHQLLELTS
B2: Transcription factor p65 (Mus musculus), Q04207 (parent)
chain: MDDLFPLIFPSEPAQASGPYVEIIEQPKQRGMRFRYKCEGRSAGSIPGERSTDTTKTHPTIKINGYTGPGTVRISLVTKDPPHRPHPHELVGKDCRDGYYEADLCPDRSIHSFQNLGIQCVKKRDLEQAISQRIQTNNNPFHVPIEEQRGDYDLNAVRLCFQVTVRDPAGRPLLLTPVLSHPIFDNRAPNTAELKICRVNRNSGSCLGGDEIFLLCDKVQKEDIEVYFTGPGWEARGSFSQADVHRQVAIVFRTPPYADPSLQAPVRVSMQLRRPSDRELSEPMEFQYLPDTDDRHRIEEKRKRTYETFKSIMKKSPFNGPTEPRPPTRRIAVPTRNSTSVPKPAPQPYTFPASLSTINFDEFSPMLLPSGQISNQALALAPSSAPVLAQTMVPSSAMVPLAQPPAPAPVLTPGPPQSLSAPVPKSTQAGEGTLSEALLHLQFDADEDLGALLGNSTDPGVFTDLASVDNSEFQQLLNQGVSMSHSTAEPMLMEYPEAITRLVTGSQRPPDPAPTPLGTSGLPNGLSGDEDFSSIADMDFSALLSQISS
partner: B1 chain
B3: Transcription factor p65 (Mus musculus), Q04207 (parent)
chain: B2 chain
partner: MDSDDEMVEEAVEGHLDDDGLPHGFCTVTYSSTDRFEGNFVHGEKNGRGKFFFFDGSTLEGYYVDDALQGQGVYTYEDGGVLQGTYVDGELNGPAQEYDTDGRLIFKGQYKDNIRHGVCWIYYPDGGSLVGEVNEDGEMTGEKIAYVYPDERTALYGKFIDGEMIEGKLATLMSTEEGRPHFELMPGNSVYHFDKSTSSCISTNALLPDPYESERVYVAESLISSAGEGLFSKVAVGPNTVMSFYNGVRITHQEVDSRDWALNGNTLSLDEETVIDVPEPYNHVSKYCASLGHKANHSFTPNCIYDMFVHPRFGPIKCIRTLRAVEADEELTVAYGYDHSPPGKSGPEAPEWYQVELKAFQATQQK

Variants of: B1
Conditions: with tf65_mouse Rela, Q04207

| effect of a mutation on the interaction | Variant |
| --- | --- |
| disrupting interaction | MATQAKRPRVAGPVDGGDLDPVACFLSWCRRVGLELSPKVSERAGGRRTRGGARAALTSPPAQVAVSRQGTVAGYGMVARESVQAGELLFVVPRAALLSQHTCSIGGLLERERVALQSQSGWVPLLLALLHELQAPASRWRPYFALWPELGRLEHPMFWPEEERRCLLQGTGVPEAVEKDLANIRSEYQSIVLPFMEAHPDLFSLRVRSLELYHQLVALVMAYSFQEPLEEEEDEKEPNSPVMVPAADILNHLANHNANLEYSANCLRMVATQPIPKGHEIFNTAGQMANWQLIHMYGFVEPYPDNTDDTADIQMVTVREAALQGTKTEAERHLVYERWDFLCKLEMVGEEGAFVIGREEVLTEEELTTTLKVLCMPAEEFRELKDQDGGGDDKREEGSLTITNIPKLKASWRQLLQNSVLLTLQTYATDLKTDQGLLSNKEVYAKLSWREQQALQVRYGQKMILHQLLELTS [Y285A] |

Variants of: B2
Conditions: with setd6_human SETD6, Q8TBK2

| effect of a mutation on the interaction | Variant |
| --- | --- |
| disrupting interaction | MDDLFPLIFPSEPAQASGPYVEIIEQPKQRGMRFRYKCEGRSAGSIPGERSTDTTKTHPTIKINGYTGPGTVRISLVTKDPPHRPHPHELVGKDCRDGYYEADLCPDRSIHSFQNLGIQCVKKRDLEQAISQRIQTNNNPFHVPIEEQRGDYDLNAVRLCFQVTVRDPAGRPLLLTPVLSHPIFDNRAPNTAELKICRVNRNSGSCLGGDEIFLLCDKVQKEDIEVYFTGPGWEARGSFSQADVHRQVAIVFRTPPYADPSLQAPVRVSMQLRRPSDRELSEPMEFQYLPDTDDRHRIEEKRKRTYETFRSIMKKSPFNGPTEPRPPTRRIAVPTRNSTSVPKPAPQPYTFPASLSTINFDEFSPMLLPSGQISNQALALAPSSAPVLAQTMVPSSAMVPLAQPPAPAPVLTPGPPQSLSAPVPKSTQAGEGTLSEALLHLQFDADEDLGALLGNSTDPGVFTDLASVDNSEFQQLLNQGVSMSHSTAEPMLMEYPEAITRLVTGSQRPPDPAPTPLGTSGLPNGLSGDEDFSSIADMDFSALLSQISS [K310R] |

Variants of: B3
Conditions: with setd7_human SETD7, Q8WTS6

| effect of a mutation on the interaction | Variant |
| --- | --- |
| disrupting interaction | MDDLFPLIFPSEPAQASGPYVEIIEQPKQRGMRFRYKCEGRSAGSIPGERSTDTTKTHPTIKINGYTGPGTVRISLVTKDPPHRPHPHELVGKDCRDGYYEADLCPDRSIHSFQNLGIQCVKKRDLEQAISQRIQTNNNPFHVPIEEQRGDYDLNAVRLCFQVTVRDPAGRPLLLTPVLSHPIFDNRAPNTAELKICRVNRNSGSCLGGDEIFLLCDKVQKEDIEVYFTGPGWEARGSFSQADVHRQVAIVFRTPPYADPSLQAPVRVSMQLRRPSDRELSEPMEFQYLPDTDDRHRIEEKRKRTYETFRSIMKKSPFNGPTEPRPPTRRIAVPTRNSTSVPKPAPQPYTFPASLSTINFDEFSPMLLPSGQISNQALALAPSSAPVLAQTMVPSSAMVPLAQPPAPAPVLTPGPPQSLSAPVPKSTQAGEGTLSEALLHLQFDADEDLGALLGNSTDPGVFTDLASVDNSEFQQLLNQGVSMSHSTAEPMLMEYPEAITRLVTGSQRPPDPAPTPLGTSGLPNGLSGDEDFSSIADMDFSALLSQISS [K310R] |
